Patent US20250042957A1
Where a chain is given by its changes, count along the chain named.

B1: 2-in-1 DARPin 23 (SEQ ID NO: 92) (designed binder)
chain: DLGKKLLQAARAGQLDEVRELLKAGADVNAKDSQGRTPLHLAAFAGHLEIVEVLLKAGADVNAKDHAGWTPLHLAAYAGHLEIVEVLVKAGADVNAKDTEGKTPLHIAAWFGHLEIVEVLLKAGADVNAKDKSGQTPLHLAAWAGHLEIVEVLLKAGADVNAKNSRGWTPLHTAAQTGHLEIFEVLLKAGADVNAKNDKRVTPLHLAAALGHLEIVEVLLKAGADVNARDSWGTTPADLAAKYGHQDIAEVLQKAA
B2: 2-in-1 DARPin 24 (SEQ ID NO: 93) (designed binder)
chain: DLGKKLLQAARAGQLDEVRELLKAGADVNAKDSQGRTPLHLAAFAGHLEIVEVLLKAGADVNAKDHAGWTPLHLAAYAGHLEIVEVLVKAGADVNAKDTEGKTPLHIAAWFGHLEIVEVLLKAGADVNAKDKSGKTPLHLAARAGHLEIVEVLLKAGADVNAKDNSGQTPLHEAAWAGHLEIVEVLLKAGADVNAKNSRGWTPLHTAAQTGHLEIFEVLLKAGADVNAKNDKRVTPLHLAAALGHLEIVEVLLKAGADVNARDSWGTTPADLAAKYGHQDIAEVLQKAA
B3: 2-in-1 DARPin 25 (SEQ ID NO: 94) (designed binder)
chain: B2 chain with E173L
B4: Parent DARPin no 4 (SEQ ID NO: 88) (designed binder)
chain: DLGKKLLQAARAGQLDEVRELLKAGADVNAKDSQGRTPLHLAAFAGHLEIVEVLLKAGADVNAKDHAGWTPLHLAAYAGHLEIVEVLVKAGADVNAKDTEGKTPLHIAAWFGHLEIVEVLLKAGADVNAQDKSGKTPADLTARAGHQDIAEVLQKAA

Each binder was assayed against TargetA (assay: ELISA on TargetA, DARPin titrated).

EC50 (read off the curve) [nM]	Binder
1	B1
0.8	B2
0.7	B3

These binders were tested against TargetA (assay: SPR, bio-TargetA coated on NAD chip, DARPin 333.33-4.11 nM).

Kd [nM]	Binder
0.024	B1
0.16	B4
0.119	B2
0.018	B3
